The record followed here is article PMC4014985 (Scientific Reports, 2014).

Usually Kd stands for the concentration at which binding is half-saturated. High values mean weaker binding, low ones tighter binding. As usually defined, the stoichiometry N is a count of units in the complex or per binding partner.

What all share (experiment): ITC
Background: In ITC the heat of successive injections is recorded.

The target of test [1] is MBP-MCAF1Δ8.
Test [2] deals with MBP-HDAC3 (UniProt O15379 1-428).
Test [3] deals with 3-methyl purine DNA glycosylase (MPG) (UniProt P29372 18-298).
Chain of 3-methyl purine DNA glycosylase (MPG) (P29372 18-298): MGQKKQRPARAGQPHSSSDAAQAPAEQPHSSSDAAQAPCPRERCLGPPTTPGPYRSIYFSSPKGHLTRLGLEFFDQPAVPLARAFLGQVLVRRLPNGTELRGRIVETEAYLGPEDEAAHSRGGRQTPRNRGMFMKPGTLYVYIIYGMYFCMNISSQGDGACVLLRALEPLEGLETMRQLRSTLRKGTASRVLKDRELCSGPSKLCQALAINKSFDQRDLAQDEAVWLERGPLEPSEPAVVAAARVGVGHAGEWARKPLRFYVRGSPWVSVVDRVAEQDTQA

Chain of MBP-HDAC3 (O15379 whole entry): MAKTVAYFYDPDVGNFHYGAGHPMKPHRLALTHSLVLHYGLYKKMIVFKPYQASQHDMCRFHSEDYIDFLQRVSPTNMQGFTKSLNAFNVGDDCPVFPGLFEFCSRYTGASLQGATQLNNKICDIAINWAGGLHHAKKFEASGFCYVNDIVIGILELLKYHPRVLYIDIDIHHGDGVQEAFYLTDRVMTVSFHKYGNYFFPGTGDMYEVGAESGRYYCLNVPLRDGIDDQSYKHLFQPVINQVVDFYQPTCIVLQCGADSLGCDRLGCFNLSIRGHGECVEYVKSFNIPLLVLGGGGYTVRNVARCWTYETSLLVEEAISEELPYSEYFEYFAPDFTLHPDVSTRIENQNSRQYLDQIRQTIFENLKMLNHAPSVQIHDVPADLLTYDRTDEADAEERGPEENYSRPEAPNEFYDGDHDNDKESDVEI

B1: C-terminus of MBD1 (MBD1-c, residues D507-Q605) (domain or fragment, human, UniProt Q9UIS9 507-605, looked up)
chain: DEWTPGTAVLTSPVLVPGCPSKAVDPGLPSVKQEPPDPEEDKEENKDDSASKLAPEEEAGGAGTPVITEIFSLGGTRFRDTAVWLPRSKDLKKPGARKQ
Turning to B1, in test [1], the Ka stood at 160000 M⁻¹, the Kd amounted to 6400 nM, the dH was -3.92 kcal/mol and the stoichiometry N amounted to 1.06. Also, in test [2], the Ka turned out to be 430000 ± 0.07 M⁻¹, binding was put at a Kd of 2350 ± 370 nM, the dH was -1.75 ± 0.78 kcal/mol and the “stoichiometry N” value amounted to 0.98 ± 0.06. In test [3], the Ka turned out to be 450000 ± 0.09 M⁻¹; the affinity, expressed as Kd, was 2290 ± 490 nM; the dH was -0.87 ± 0.09 kcal/mol; the “stoichiometry N” value was 1.1 ± 0.11.
